Experimental data from publication PMC4300236.

Molecular target: rabbit skeletal muscle type 1 ryanodine receptor (RyR1) (rabbit (Oryctolagus cuniculus)) (UniProt P11716)
Assay: cryo-EM structure

Sequence of rabbit skeletal muscle type 1 ryanodine receptor (RyR1), P11716 1-5037 (P11716 whole entry): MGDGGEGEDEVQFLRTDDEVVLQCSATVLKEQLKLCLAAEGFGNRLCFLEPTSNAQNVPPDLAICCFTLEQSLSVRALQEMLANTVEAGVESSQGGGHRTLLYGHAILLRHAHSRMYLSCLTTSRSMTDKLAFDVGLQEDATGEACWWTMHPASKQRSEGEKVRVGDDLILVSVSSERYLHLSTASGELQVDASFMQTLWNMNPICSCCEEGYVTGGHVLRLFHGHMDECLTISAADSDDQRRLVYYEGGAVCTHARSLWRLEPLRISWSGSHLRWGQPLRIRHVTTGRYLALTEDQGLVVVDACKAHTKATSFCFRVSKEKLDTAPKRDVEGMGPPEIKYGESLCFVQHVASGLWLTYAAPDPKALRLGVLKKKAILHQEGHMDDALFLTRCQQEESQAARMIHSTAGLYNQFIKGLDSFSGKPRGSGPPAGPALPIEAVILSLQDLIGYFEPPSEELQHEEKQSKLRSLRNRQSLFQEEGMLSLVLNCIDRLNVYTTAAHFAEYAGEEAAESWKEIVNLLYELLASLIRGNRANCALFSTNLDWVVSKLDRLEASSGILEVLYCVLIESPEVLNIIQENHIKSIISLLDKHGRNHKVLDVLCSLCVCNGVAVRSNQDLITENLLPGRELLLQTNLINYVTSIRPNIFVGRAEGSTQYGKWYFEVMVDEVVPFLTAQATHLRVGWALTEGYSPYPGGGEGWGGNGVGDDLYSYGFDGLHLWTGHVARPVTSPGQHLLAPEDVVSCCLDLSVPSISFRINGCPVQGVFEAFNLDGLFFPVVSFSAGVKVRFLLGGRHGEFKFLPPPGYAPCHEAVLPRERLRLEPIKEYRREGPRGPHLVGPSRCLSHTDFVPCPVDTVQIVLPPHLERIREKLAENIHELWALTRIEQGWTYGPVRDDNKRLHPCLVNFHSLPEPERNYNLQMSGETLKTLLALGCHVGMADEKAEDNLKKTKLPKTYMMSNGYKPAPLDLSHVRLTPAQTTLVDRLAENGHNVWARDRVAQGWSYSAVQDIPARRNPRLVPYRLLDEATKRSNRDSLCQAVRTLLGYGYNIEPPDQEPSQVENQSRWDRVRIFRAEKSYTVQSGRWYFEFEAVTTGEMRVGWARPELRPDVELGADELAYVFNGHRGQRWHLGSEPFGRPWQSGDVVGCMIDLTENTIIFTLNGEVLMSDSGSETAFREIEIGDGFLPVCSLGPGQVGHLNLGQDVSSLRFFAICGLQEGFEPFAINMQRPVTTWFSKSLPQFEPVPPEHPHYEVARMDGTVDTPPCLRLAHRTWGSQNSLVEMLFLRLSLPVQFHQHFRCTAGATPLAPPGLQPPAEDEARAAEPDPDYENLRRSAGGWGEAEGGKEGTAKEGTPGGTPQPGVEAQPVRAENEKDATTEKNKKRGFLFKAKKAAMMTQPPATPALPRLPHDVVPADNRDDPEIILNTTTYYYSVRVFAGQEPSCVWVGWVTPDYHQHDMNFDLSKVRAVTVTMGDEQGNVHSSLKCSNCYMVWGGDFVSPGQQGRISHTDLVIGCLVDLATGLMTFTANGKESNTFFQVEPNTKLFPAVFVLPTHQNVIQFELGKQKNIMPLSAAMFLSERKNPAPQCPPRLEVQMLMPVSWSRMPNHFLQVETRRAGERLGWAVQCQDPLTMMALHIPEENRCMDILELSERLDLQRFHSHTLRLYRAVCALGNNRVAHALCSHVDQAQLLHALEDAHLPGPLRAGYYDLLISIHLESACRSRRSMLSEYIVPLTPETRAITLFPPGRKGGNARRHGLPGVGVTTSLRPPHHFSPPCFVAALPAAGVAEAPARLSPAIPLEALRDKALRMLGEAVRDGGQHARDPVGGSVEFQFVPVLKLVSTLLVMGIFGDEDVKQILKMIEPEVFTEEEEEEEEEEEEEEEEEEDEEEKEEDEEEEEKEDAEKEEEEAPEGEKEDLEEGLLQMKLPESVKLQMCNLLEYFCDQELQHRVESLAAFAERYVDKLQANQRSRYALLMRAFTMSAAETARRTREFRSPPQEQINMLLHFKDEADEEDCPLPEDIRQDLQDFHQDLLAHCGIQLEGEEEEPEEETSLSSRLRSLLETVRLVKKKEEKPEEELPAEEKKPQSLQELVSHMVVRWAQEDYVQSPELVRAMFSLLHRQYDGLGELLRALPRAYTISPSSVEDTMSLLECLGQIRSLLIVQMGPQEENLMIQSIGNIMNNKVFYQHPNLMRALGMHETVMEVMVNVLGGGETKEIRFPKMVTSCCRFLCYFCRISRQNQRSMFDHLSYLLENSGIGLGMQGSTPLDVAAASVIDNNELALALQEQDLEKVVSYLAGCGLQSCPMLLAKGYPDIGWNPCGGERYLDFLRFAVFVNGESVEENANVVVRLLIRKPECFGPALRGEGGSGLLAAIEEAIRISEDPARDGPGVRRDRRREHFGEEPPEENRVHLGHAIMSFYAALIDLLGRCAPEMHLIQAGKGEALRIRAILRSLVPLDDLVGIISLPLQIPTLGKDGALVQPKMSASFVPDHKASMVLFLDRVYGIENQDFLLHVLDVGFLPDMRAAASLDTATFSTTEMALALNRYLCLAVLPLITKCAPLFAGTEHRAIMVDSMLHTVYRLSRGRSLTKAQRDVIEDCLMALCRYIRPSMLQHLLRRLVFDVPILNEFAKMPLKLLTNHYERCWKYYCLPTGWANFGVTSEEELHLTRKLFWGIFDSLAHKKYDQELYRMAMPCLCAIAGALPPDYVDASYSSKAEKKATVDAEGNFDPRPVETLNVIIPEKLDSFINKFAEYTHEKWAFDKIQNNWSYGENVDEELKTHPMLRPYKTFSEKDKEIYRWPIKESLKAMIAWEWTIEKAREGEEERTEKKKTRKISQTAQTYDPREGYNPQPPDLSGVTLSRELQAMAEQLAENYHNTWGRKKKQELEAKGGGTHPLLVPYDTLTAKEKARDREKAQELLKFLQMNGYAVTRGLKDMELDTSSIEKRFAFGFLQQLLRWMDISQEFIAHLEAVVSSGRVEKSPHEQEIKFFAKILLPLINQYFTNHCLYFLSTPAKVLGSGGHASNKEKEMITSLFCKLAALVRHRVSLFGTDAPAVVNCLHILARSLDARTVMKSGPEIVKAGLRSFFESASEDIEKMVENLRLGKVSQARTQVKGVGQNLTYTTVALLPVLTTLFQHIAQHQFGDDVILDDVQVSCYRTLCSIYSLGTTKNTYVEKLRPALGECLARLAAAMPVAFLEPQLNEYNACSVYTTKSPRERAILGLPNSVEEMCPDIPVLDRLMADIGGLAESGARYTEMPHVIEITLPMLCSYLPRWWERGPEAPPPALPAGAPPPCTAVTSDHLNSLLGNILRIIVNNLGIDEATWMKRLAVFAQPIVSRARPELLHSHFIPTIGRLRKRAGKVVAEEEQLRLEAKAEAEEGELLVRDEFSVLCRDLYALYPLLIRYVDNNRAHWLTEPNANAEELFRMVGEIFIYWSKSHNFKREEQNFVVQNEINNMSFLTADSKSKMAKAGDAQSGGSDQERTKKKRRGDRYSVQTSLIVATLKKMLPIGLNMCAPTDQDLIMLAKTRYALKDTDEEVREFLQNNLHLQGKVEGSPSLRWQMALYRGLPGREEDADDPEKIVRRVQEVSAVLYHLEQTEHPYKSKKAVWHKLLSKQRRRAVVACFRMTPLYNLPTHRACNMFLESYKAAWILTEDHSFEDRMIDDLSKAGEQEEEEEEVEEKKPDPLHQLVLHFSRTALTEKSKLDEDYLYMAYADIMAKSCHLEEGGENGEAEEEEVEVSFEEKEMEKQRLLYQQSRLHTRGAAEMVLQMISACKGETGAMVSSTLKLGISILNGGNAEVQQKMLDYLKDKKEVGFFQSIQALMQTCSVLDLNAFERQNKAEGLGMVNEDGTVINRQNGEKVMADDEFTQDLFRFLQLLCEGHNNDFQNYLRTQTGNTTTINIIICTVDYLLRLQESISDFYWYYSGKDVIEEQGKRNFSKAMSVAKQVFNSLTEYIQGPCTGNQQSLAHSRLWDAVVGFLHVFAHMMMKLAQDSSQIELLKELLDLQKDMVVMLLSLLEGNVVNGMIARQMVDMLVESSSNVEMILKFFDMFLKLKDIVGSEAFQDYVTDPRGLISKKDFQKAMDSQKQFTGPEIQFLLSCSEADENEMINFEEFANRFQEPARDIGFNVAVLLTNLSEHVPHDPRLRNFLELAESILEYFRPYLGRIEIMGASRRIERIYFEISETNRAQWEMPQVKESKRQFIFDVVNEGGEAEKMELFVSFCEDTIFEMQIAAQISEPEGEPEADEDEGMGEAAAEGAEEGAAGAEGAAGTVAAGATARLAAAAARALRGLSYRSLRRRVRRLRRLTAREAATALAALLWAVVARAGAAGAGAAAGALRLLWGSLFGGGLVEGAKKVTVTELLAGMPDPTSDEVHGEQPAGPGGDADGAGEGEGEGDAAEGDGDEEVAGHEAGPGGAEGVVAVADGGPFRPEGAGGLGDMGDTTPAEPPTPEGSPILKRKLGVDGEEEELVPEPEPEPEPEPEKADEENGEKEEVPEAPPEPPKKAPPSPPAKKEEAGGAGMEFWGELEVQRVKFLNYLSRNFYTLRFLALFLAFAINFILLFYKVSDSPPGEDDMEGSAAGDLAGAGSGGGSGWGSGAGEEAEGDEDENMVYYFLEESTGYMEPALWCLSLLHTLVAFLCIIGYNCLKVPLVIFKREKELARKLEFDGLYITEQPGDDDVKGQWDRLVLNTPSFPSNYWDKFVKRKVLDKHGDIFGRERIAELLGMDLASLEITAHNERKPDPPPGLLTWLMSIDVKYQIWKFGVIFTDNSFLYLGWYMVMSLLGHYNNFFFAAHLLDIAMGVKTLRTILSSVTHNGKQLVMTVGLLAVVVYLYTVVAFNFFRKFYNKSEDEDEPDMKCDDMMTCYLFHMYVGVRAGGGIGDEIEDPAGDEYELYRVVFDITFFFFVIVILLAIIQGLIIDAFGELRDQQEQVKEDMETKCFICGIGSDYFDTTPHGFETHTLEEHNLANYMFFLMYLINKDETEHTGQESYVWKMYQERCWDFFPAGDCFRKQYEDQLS

stoichiometry N: 4
Substance: rabbit skeletal muscle type 1 ryanodine receptor (RyR1), P11716 1-5037
